The values below come from patent US20250154238A1 (YALE UNIVERSITY, published 2025).

The target in experiment [1] is T1, recombinant human epiregulin containing the epidermal growth factor (EGF) domain (R&D Biosciences Cat … (human, UniProt O14944 63-108)).
T1 construct: domain: epidermal growth factor (EGF) domain; Bought protein; also called rhEreg; rhEpiregulin
Briefly: Octet bio-layer interferometry, recombinant human epiregulin immobilized.

Experiment [2] addresses T1, recombinant human epiregulin containing …. Briefly: cell-based or functional assay.
For experiment [3] the target is unchanged. Briefly: cell-based or functional assay. This is another data set of the same source.
For experiment [4] the target is unchanged. Briefly: cell-based or functional assay. This is another data set of the same source.

T1 sequence (O14944 63-108 limits assumed): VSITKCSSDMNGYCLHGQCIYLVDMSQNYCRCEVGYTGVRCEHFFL

B1: humanized epiregulin neutralizing antibody 1 (hEreg NAb1) (antibody, V domains shown)
VH: HLQLQESGPGLVKSSETLSLTCSVSGGSISSSGYYWGWIRQPPGKGLEWIGSFYYSGNTYYNPSLKSRVTISADTSKSQYSLKLSSVTAADTAVYYCARHPFNWNDHYHYMDVWGNGTTVTVSS
VL: DIQMTQSPSSLSASVGDSVTITCRASQSISNYLNWYQKKPGKAPKVLIYAASSLQSGVPSRFSGSGSGTDFTLTISSLQPEDFATYYCQQSYITSITFGQGTRLEIK
notes: The clone comes from hybridomas of Alloy mice (fully human variable regions) and represents wells M3, M4 and M5; also called humanized epiregulin antibody; M3
On to B1, for which the Kd in experiment [1] is 0.038 nM. In experiment [2], the “IC50 of inhibition of epiregulin-induced HFF proliferation (rhEreg 100 ng/ml)” value was 0.1 to 0.3 µg/mL. Moreover, the “IC50 of inhibition of HFF proliferation induced by 100 ng/ml rhEreg (GFP fluorescence, CyQUANT, day 3)” value in experiment [3] is 0.27 µg/mL. In experiment [4], the “IC50 (nM), calculated from HFF proliferation assays” value is 1.8 nM.
